Reference: the Human Domainome abundance scans (Beltran et al. 2025)
± gives the uncertainty stated by the source.

B1: Peripheral plasma membrane protein CASK, residues 488 to 569; numbered along this chain, O14936 (parent)
chain: VRLVQFQKNTDEPMGITLKMNELNHCIVARIMHGGMIHRQGTLHVGDEIREINGISVANQTVEQLQKMLREMRGSITFKIVP

Variants of: B1
Experiment: abundance fitness (aPCA) (normalised: wild type 0, dead -1); higher = more abundant; growth selection in yeast, the domain comes from the species named
Settings: Homo sapiens

Abundance fitness of substitutions, site by site:
R30: S -0.007 ± 0.033; V -0.163 ± 0.032; W -0.114 ± 0.034; Y 0.015 ± 0.092
I31: A -0.647 ± 0.059; D -0.61 ± 0.075; E -0.777 ± 0.078; F -0.331 ± 0.13; G -1 ± 0.069; H -0.779 ± 0.27; K -0.93 ± 0.15; L -0.058 ± 0.032; N -0.71 ± 0.14; P -0.791 ± 0.082; Q -1.04 ± 0.13; R -0.869 ± 0.052; S -0.859 ± 0.075; V -0.057 ± 0.03; W -0.847 ± 0.082; Y -0.579 ± 0.12
M32: A 0.058 ± 0.035; D 0.051 ± 0.055; E 0.04 ± 0.037; F 0.086 ± 0.26; G -0.093 ± 0.028; I 0.175 ± 0.085; K 0.042 ± 0.039; L -0.083 ± 0.038; N 0.062 ± 0.078; P -0.109 ± 0.051; Q 0.001 ± 0.045; R 0.003 ± 0.028; T 0.015 ± 0.044; V 0.027 ± 0.034; W -0.045 ± 0.045; Y -0.086 ± 0.072
H33: C -0.033 ± 0.039; D -0.011 ± 0.044; E 0.066 ± 0.033; F -0.102 ± 0.062; G -0.054 ± 0.025; I -0.006 ± 0.052; K 0.01 ± 0.04; L -0.119 ± 0.028; M -0.026 ± 0.036; P 0.009 ± 0.033; Q 0.045 ± 0.036; R -0.006 ± 0.024; S -0.008 ± 0.029; T 0.005 ± 0.035; V 0.003 ± 0.028; W -0.16 ± 0.034; Y -0.107 ± 0.053
G34: A -0.247 ± 0.041; C -0.252 ± 0.064; D -0.032 ± 0.051; F -0.385 ± 0.096; H -0.052 ± 0.085; I -0.478 ± 0.1; K -0.177 ± 0.064; L -0.261 ± 0.042; M -0.259 ± 0.057; N -0.016 ± 0.1; P -0.373 ± 0.06; Q -0.151 ± 0.057; R -0.194 ± 0.035; T -0.126 ± 0.054; V -0.447 ± 0.042; Y -0.489 ± 0.14
G35: A -0.098 ± 0.026; C -0.066 ± 0.035; D -0.236 ± 0.043; E -0.187 ± 0.029; F -0.243 ± 0.057; H -0.068 ± 0.057; I -0.843 ± 0.17; L -0.268 ± 0.027; M -0.128 ± 0.038; N -0.28 ± 0.068; P -0.549 ± 0.048; R -0.278 ± 0.024; S 0.027 ± 0.026; T -0.013 ± 0.033; V -0.485 ± 0.031; W -0.422 ± 0.035; Y -0.134 ± 0.054
M36: A 0.039 ± 0.039; C -0.07 ± 0.058; D -0.044 ± 0.062; E 0.009 ± 0.042; F 0.119 ± 0.082; G -0.05 ± 0.029; H 0.075 ± 0.061; I 0.029 ± 0.061; L 0.025 ± 0.037; N -0.07 ± 0.08; P 0.095 ± 0.048; Q -0.014 ± 0.044; R -0.092 ± 0.028; S 0.049 ± 0.038; T 0.006 ± 0.05; V 0 ± 0.036; W 0.068 ± 0.035; Y 0.066 ± 0.072
I37: A 0.019 ± 0.025; C -0.024 ± 0.034; E -0.378 ± 0.032; F -0.092 ± 0.048; G -0.276 ± 0.023; H -0.294 ± 0.05; L -0.103 ± 0.025; M -0.021 ± 0.03; N -0.391 ± 0.059; P -0.42 ± 0.044; Q -0.43 ± 0.045; R -0.531 ± 0.026; S -0.217 ± 0.028; T -0.129 ± 0.029; W -0.333 ± 0.03; Y -0.38 ± 0.056
H38: A -0.028 ± 0.024; C -0.129 ± 0.036; D -0.043 ± 0.035; E 0.048 ± 0.027; F -0.057 ± 0.045; G -0.091 ± 0.02; I -0.295 ± 0.066; K -0.138 ± 0.037; L -0.348 ± 0.03; N -0.138 ± 0.055; P -0.103 ± 0.034; Q 0.024 ± 0.034; R -0.209 ± 0.023; S -0.052 ± 0.028; T -0.313 ± 0.04; W -0.029 ± 0.026; Y -0.076 ± 0.049
R39: A -0.035 ± 0.022; C -0.156 ± 0.055; D -0.096 ± 0.034; E -0.052 ± 0.026; F -0.34 ± 0.051; G -0.136 ± 0.019; H -0.118 ± 0.043; I -0.297 ± 0.04; L -0.138 ± 0.026; M -0.135 ± 0.033; N 0.04 ± 0.037; P -0.469 ± 0.04; Q -0.024 ± 0.031; S -0.047 ± 0.026; T -0.07 ± 0.03; V -0.197 ± 0.022; Y -0.35 ± 0.048
Q40: A -0.016 ± 0.02; C -0.072 ± 0.029; E 0.018 ± 0.024; F -0.103 ± 0.041; G -0.097 ± 0.023; H -0.096 ± 0.041; I -0.05 ± 0.038; L -0.06 ± 0.022; M -0.055 ± 0.026; N -0.007 ± 0.041; P -0.552 ± 0.04; S -0.043 ± 0.023; T -0.067 ± 0.026; V -0.065 ± 0.021
G41: A -0.083 ± 0.024; C -0.137 ± 0.031; D -0.065 ± 0.033; E -0.1 ± 0.028; F -0.618 ± 0.061; H -0.07 ± 0.043; I -0.55 ± 0.069; K -0.1 ± 0.032; L -0.424 ± 0.029; M -0.233 ± 0.036; N -0.072 ± 0.039; P -0.541 ± 0.047; Q -0.113 ± 0.034; R -0.127 ± 0.021; S -0.098 ± 0.025; T -0.033 ± 0.03; V -0.288 ± 0.025; W -0.829 ± 0.048; Y -0.639 ± 0.08
T42: A 0.005 ± 0.024; C -0.025 ± 0.031; D -0.007 ± 0.032; E 0.012 ± 0.026; F -0.021 ± 0.037; G 0.005 ± 0.02; H -0.065 ± 0.045; K 0.025 ± 0.031; L -0.003 ± 0.024; M 0.01 ± 0.032; N -0.039 ± 0.046; P -0.336 ± 0.033; Q 0.003 ± 0.031; R -0.038 ± 0.02; S 0.005 ± 0.024; V -0.019 ± 0.023; W -0.246 ± 0.027; Y -0.076 ± 0.037
L43: A -0.722 ± 0.04; C -0.308 ± 0.038; D -1.04 ± 0.11; E -0.774 ± 0.049; F 0.052 ± 0.055; G -0.985 ± 0.043; H -0.97 ± 0.16; K -0.99 ± 0.09; M -0.021 ± 0.03; N -0.906 ± 0.15; P -0.658 ± 0.06; Q -1.01 ± 0.1; R -0.853 ± 0.036; S -0.755 ± 0.051; T -0.76 ± 0.06; V -0.021 ± 0.024; W -0.662 ± 0.041; Y -0.733 ± 0.11
H44: A -0.006 ± 0.023; C -0.012 ± 0.033; D -0.021 ± 0.031; E 0.02 ± 0.035; F -0.125 ± 0.04; I -0.188 ± 0.049; K 0.007 ± 0.032; L -0.142 ± 0.025; M -0.024 ± 0.03; N -0.029 ± 0.037; P -0.917 ± 0.063; Q -0.006 ± 0.03; S -0.007 ± 0.023; T -0.039 ± 0.029; W -0.281 ± 0.03; Y -0.075 ± 0.051
V45: A -0.045 ± 0.043; C -0.128 ± 0.079; D -0.178 ± 0.079; E -0.054 ± 0.046; F -0.457 ± 0.14; G -0.548 ± 0.054; H 0.016 ± 0.18; I -0.046 ± 0.047; K -0.207 ± 0.083; L -0.061 ± 0.05; M -0.025 ± 0.074; N -0.292 ± 0.12; P -0.059 ± 0.072; Q -0.134 ± 0.061; R -0.169 ± 0.043; S -0.232 ± 0.051; T 0.022 ± 0.075; W -0.464 ± 0.12; Y -0.665 ± 0.35
G46: A -0.624 ± 0.045; C -0.721 ± 0.081; D -0.22 ± 0.04; E -0.293 ± 0.042; F -0.75 ± 0.17; H -0.471 ± 0.13; I -1.01 ± 0.24; K -0.706 ± 0.077; L -0.638 ± 0.05; M -0.553 ± 0.076; N -0.128 ± 0.072; P -0.877 ± 0.13; Q -0.61 ± 0.084; R -0.669 ± 0.041; S -0.491 ± 0.041; T -0.992 ± 0.2; V -1.04 ± 0.092; W -0.951 ± 0.092; Y -1.02 ± 0.28
D47: A -0.708 ± 0.085; C -0.552 ± 0.15; E -0.323 ± 0.061; H -1.03 ± 0.27; I -0.694 ± 0.36; K -1.04 ± 0.24; L -0.878 ± 0.13; N -0.497 ± 0.1; R -0.939 ± 0.11; S -0.711 ± 0.077; T -0.788 ± 0.15; V -0.859 ± 0.11; Y -0.832 ± 0.22
E48: A -0.105 ± 0.033; C -0.017 ± 0.045; D -0.108 ± 0.049; F -0.362 ± 0.15; H -0.108 ± 0.071; I -0.073 ± 0.073; K -0.19 ± 0.055; L -0.161 ± 0.037; M -0.158 ± 0.049; N -0.326 ± 0.082; P -1.09 ± 0.24; Q -0.069 ± 0.051; R -0.037 ± 0.028; S -0.071 ± 0.04; T -0.123 ± 0.053; V -0.06 ± 0.033; W -0.059 ± 0.036
I49: A -0.856 ± 0.089; C -0.855 ± 0.17; D -0.24 ± 0.2; E -0.992 ± 0.13; F -0.721 ± 0.17; G -1.05 ± 0.11; K -0.823 ± 0.16; L -0.089 ± 0.04; M -0.264 ± 0.097; N -0.804 ± 0.2; P -0.743 ± 0.15; Q -1 ± 0.24; R -0.858 ± 0.073; S -0.886 ± 0.12; T -0.576 ± 0.095; V 0.001 ± 0.035; W -1.04 ± 0.17; Y -0.998 ± 0.27
R50: A -0.025 ± 0.033; C 0.038 ± 0.056; E -0.068 ± 0.037; F -0.211 ± 0.15; G -0.315 ± 0.034; H -0.148 ± 0.11; I 0.034 ± 0.089; K 0.028 ± 0.045; M 0 ± 0.054
